Data set [1] deals with the molecule itself. In words: photon counting histogram.
Data set [2] deals with the molecule itself. Briefly: single-molecule fluorescence brightness analysis.

B1: MyD88 TIR domain (159-296 a.a) fused to GFP at the N-terminus (domain or fragment, human, UniProt Q99836 159-296, looked up)
chain: ERFDAFICYCPSDIQFVQEMIRQLEQTNYRLKLCVSDRDVLPGTCVWSIASELIEKRCRRMVVVVSDDYLQSKECDFQTKFALSLSPGAHQKRLIPIKYKAMKKEFPSILRFITVCDYTNPCTKSWFWTRLAKALSLP
With B1, the “stoichiometry N” value in data set [1] was 3; in data set [2], roughly 3 GFP fluorophores.

B2: MyD88 death domain (1-117 a.a) fused to GFP at the N-terminus (domain or fragment, human, UniProt Q99836 1-117, looked up)
chain: MAAGGPGAGSAAPVSSTSSLPLAALNMRVRRRLSLFLNVRTQVAADWTALAEEMDFEYLEIRQLETQADPTGRLLDAWQGRPGASVGRLLELLTKLGRDDVLLELGPSIEEDCQKYI
Consider B2, for which the entries for the “stoichiometry N” value in data set [1] and in data set [2] were 8 and 8 to 10 GFP molecules, respectively.

In general, stoichiometry N refers to the number of molecules, sites or subunits per partner or assembly.

These data come from article doi:10.1101/351726 (bioRxiv, 2018).
